Measurements: the supplement of paper PMC7877785
± gives the uncertainty stated by the source.

Assay: self-splicing fitness, log relative to wild type (ln ratio); higher = more splicing; Tetrahymena group I intron in knt gene, E. coli kanamycin selection, DiMSum; sequences stand for … in CUCUCU…GGAGGGAAAAGUUAUCAGGCAUGCACCUGGUAGCUAGUCUUUAAACCAAUAGAUUGCAUCGGUUUAAAAGGCAAGACCGUCAAAUUGCGGGAAAGGGGUCAACAGCCGUUCAGUACCAAGUCUCAGGGGAAACUUUGAGAUGGCCUUGCAAAGGGUAUGGUAAUAAGCUGACGGACAUGGUCCUAACCACGCAGCCAAGUCCUAAGUCAACAGAUCUUCUGUUGAUAUGGAUGCAGUUCACAGACUAAAUGUCGGUCGGGGAAGAUGUAUUCUUCUCAUAAGAUAUAGUCGGACCUCUCCUUAAUGGGAGCUAGCGGAUGAAGUGAUGCAACACUGGAGCCGCUGGGAACUAAUUUGUAUGCGAAAGUAUAUUGAUUAGUUUUGGAGUACUCGUGGUCG
Outline: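 Six replicate transformations of E. coli BL21(DE3) with a pET-22b(+) library were grown overnight at 37°C or 30°C. The library randomised all eight P1ex-region intron nucleotides, the intron lying in the knt kanamycin-resistance gene, and plates were LB agar with or without 25 μg/mL kanamycin plus 100 μg/mL carbenicillin, 50 μM IPTG and 0.2% rhamnose. Pooled colonies were amplicon-sequenced on an Illumina HiSeq 2500, and fitness is the DiMSum error-weighted combination of wild-type-normalised replicate fold changes, kanamycin versus none.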

Sequence: AUGUAGCAAUAUUACGCGGA
- self-splicing fitness (ln) (30 °C): -2.41 ± 0.3
- self-splicing fitness (ln) (37 °C): -1.09 ± 0.2

Sequence: AUGUAGCAAUAUUACGCUGG
- self-splicing fitness (ln) (30 °C): -3.03 ± 0.14
- self-splicing fitness (ln) (37 °C): -1.92 ± 0.16

Sequence: AUGUAGCAAUAUUACGGGCC
- self-splicing fitness (ln) (30 °C): -2.93 ± 0.35
- self-splicing fitness (ln) (37 °C): -1.86 ± 0.32

Sequence: AUGUAGCAAUAUUACGGGCU
- self-splicing fitness (ln) (30 °C): -2.18 ± 0.16
- self-splicing fitness (ln) (37 °C): -0.877 ± 0.16

Sequence: AUGUAGCAAUAUUACGUACA
- self-splicing fitness (ln) (30 °C): -0.425 ± 0.14
- self-splicing fitness (ln) (37 °C): -0.328 ± 0.16

Sequence: AUGUAGCAAUAUUACGUCAU
- self-splicing fitness (ln) (30 °C): -1.81 ± 0.059
- self-splicing fitness (ln) (37 °C): -0.896 ± 0.069

Sequence: AUGUAGCAAUAUUACGUGCG
- self-splicing fitness (ln) (30 °C): -1.8 ± 0.09
- self-splicing fitness (ln) (37 °C): -0.122 ± 0.097

Sequence: AUGUAGCAAUAUUACGUGGA
- self-splicing fitness (ln) (30 °C): -1.58 ± 0.22
- self-splicing fitness (ln) (37 °C): -3.15 ± 0.24

Sequence: AUGUAGCAAUAUUACGUGGC
- self-splicing fitness (ln) (30 °C): -4.11 ± 0.46
- self-splicing fitness (ln) (37 °C): -2.84 ± 0.25

Sequence: AUGUAGCAAUAUUACGUGUU
- self-splicing fitness (ln) (30 °C): -2.4 ± 0.12
- self-splicing fitness (ln) (37 °C): -1.08 ± 0.14

Sequence: AUGUAGCAAUAUUACGUUCU
- self-splicing fitness (ln) (30 °C): -1.05 ± 0.082
- self-splicing fitness (ln) (37 °C): -0.469 ± 0.094

Sequence: AUGUAGCAAUAUUACGUUUU
- self-splicing fitness (ln) (30 °C): -2.64 ± 0.074
- self-splicing fitness (ln) (37 °C): -1.8 ± 0.1

Sequence: AUUAAGCAAUAUUACGAGGG
- self-splicing fitness (ln) (37 °C): -2.96 ± 0.36

Sequence: AUUAAGCAAUAUUACGAUCC
- self-splicing fitness (ln) (30 °C): -0.418 ± 0.11
- self-splicing fitness (ln) (37 °C): -0.106 ± 0.19

Sequence: AUUAAGCAAUAUUACGCCCA
- self-splicing fitness (ln) (30 °C): -1.11 ± 0.19
- self-splicing fitness (ln) (37 °C): -0.42 ± 0.29

Sequence: AUUAAGCAAUAUUACGCGGU
- self-splicing fitness (ln) (30 °C): -3.93 ± 0.47
- self-splicing fitness (ln) (37 °C): -3.09 ± 0.35

Sequence: AUUAAGCAAUAUUACGCUGC
- self-splicing fitness (ln) (30 °C): -3.87 ± 0.27
- self-splicing fitness (ln) (37 °C): -1.98 ± 0.22

Sequence: AUUAAGCAAUAUUACGGAAC
- self-splicing fitness (ln) (30 °C): -3.44 ± 0.2
- self-splicing fitness (ln) (37 °C): -0.822 ± 0.13

Sequence: AUUAAGCAAUAUUACGGAGA
- self-splicing fitness (ln) (30 °C): -2.53 ± 0.19
- self-splicing fitness (ln) (37 °C): -3.25 ± 0.32

Sequence: AUUAAGCAAUAUUACGGAUC
- self-splicing fitness (ln) (30 °C): -1.85 ± 0.16
- self-splicing fitness (ln) (37 °C): -0.479 ± 0.18

Sequence: AUUAAGCAAUAUUACGGCUA
- self-splicing fitness (ln) (30 °C): -0.106 ± 0.11
- self-splicing fitness (ln) (37 °C): -0.122 ± 0.11

Sequence: AUUAAGCAAUAUUACGGGUA
- self-splicing fitness (ln) (30 °C): -2.2 ± 0.17
- self-splicing fitness (ln) (37 °C): -0.0398 ± 0.12

Sequence: AUUAAGCAAUAUUACGUCGA
- self-splicing fitness (ln) (30 °C): -1 ± 0.1
- self-splicing fitness (ln) (37 °C): -0.855 ± 0.13

Sequence: AUUAAGCAAUAUUACGUCGU
- self-splicing fitness (ln) (30 °C): -1.43 ± 0.094
- self-splicing fitness (ln) (37 °C): -0.383 ± 0.12

Sequence: AUUAAGCAAUAUUACGUGGG
- self-splicing fitness (ln) (30 °C): -3.45 ± 0.17
- self-splicing fitness (ln) (37 °C): -2.44 ± 0.16

Sequence: AUUAAGCAAUAUUACGUUAA
- self-splicing fitness (ln) (30 °C): -2.52 ± 0.15
- self-splicing fitness (ln) (37 °C): -1.35 ± 0.12

Sequence: AUUAAGCAAUAUUACGUUGA
- self-splicing fitness (ln) (30 °C): -2.67 ± 0.24
- self-splicing fitness (ln) (37 °C): -1.95 ± 0.16

Sequence: AUUCAGCAAUAUUACGAAGC
- self-splicing fitness (ln) (30 °C): -3.62 ± 0.27
- self-splicing fitness (ln) (37 °C): -1.32 ± 0.17

Sequence: AUUCAGCAAUAUUACGACCC
- self-splicing fitness (ln) (30 °C): 0.119 ± 0.42

Sequence: AUUCAGCAAUAUUACGACGU
- self-splicing fitness (ln) (30 °C): -0.0483 ± 0.06
- self-splicing fitness (ln) (37 °C): 0.146 ± 0.068

Sequence: AUUCAGCAAUAUUACGAGAA
- self-splicing fitness (ln) (30 °C): -1.51 ± 0.18
- self-splicing fitness (ln) (37 °C): -1.74 ± 0.18

Sequence: AUUCAGCAAUAUUACGCACG
- self-splicing fitness (ln) (30 °C): -0.783 ± 0.16
- self-splicing fitness (ln) (37 °C): -0.413 ± 0.16

Sequence: AUUCAGCAAUAUUACGCGAG
- self-splicing fitness (ln) (30 °C): -0.677 ± 0.065
- self-splicing fitness (ln) (37 °C): -0.126 ± 0.079

Sequence: AUUCAGCAAUAUUACGCUCU
- self-splicing fitness (ln) (30 °C): -0.186 ± 0.094
- self-splicing fitness (ln) (37 °C): 0.683 ± 0.12

Sequence: AUUCAGCAAUAUUACGCUGU
- self-splicing fitness (ln) (30 °C): -2.87 ± 0.21
- self-splicing fitness (ln) (37 °C): -1.09 ± 0.18

Sequence: AUUCAGCAAUAUUACGCUUG
- self-splicing fitness (ln) (30 °C): -0.971 ± 0.083
- self-splicing fitness (ln) (37 °C): -0.265 ± 0.093

Sequence: AUUCAGCAAUAUUACGGAGA
- self-splicing fitness (ln) (30 °C): -1.48 ± 0.12
- self-splicing fitness (ln) (37 °C): -0.618 ± 0.11

Sequence: AUUCAGCAAUAUUACGGAGC
- self-splicing fitness (ln) (30 °C): -2.82 ± 0.23
- self-splicing fitness (ln) (37 °C): -1.71 ± 0.19
